Several values for one entry are separate records, joined by “and”; a condition that tells them apart may be missing. Equal entries are not always repeated.
Assay: UV-visible spectroscopy of oxidized or kynurenine-modified amino acids, peptides, proteins and polymers
Assay type: physicochemical
Protocol: A prototype of oxidized amino acid-bearing peptides from enzymatic hydrolysate of pea protein was made. […] More particularly, peptides derived from enzymatic hydrolysis of pea protein (Sigma, 16974) were oxidized in 50 mM sodium phosphate buffer at room temperature using ozone bubbled through the solution (A2Z Ozone Inc., MP1000).
A prototype of kynurenine-bearing polymers was produced from enzymatic hydrolysis of soy protein generating starting peptide material. The soluble peptides were then oxidized in a semi-sealed container into which ozone was pumped.
This was done with bovine serum albumin buffer exchanged with into 50 mM sodium phosphate pH 6.5 to remove small molecule impurities.
The polymeric lysine (8.8 mg) was suspended in 200 microliters of 50 mM sodium bicarbonate pH 9.5 and treated with DL-kynurenine (Sigma 61250) (~1 mM) for 44 hours at 37° C. in the dark. […] Controls of poly-lysine with no added kynurenine and that of kynurenine without poly-lysine were run concurrently. […] Soy peptides were used similarly, though they also contain other potential nucleophilic residues besides lysine to which kynurenine monomers could be added, including cysteine and histidine. These soy peptides were generated from overnight incubation at 37° C. of soy protein powder (5 g/100 mL deionized water) using porcine pepsin (0.5 mg/mL) all brought to pH 2.0 using hydrochloric acid. After this incubation, insoluble material was removed via centrifugation, and the clarified solution was brought to pH 9.5 using sodium hydroxide. This soy peptide solution was added in two parts to one part 50 mM sodium bicarbonate pH 9.5. To 1 mL of soy peptide solution was added 0.2 mL DLkynurenine (final 1 mM), and this was incubated for 44 hours at 37° C. in the dark. To isolate peptides from free kynurenine to determine if kynurenine monomers were added by UV-visible spectroscopy, small molecules and even some small peptides were removed with size exclusion (Sephadex G-50, GE Healthcare).

[1] = after incubation with DL-kynurenine (44 hours, 37° C., pH 9.5) and size exclusion
[2] = after treatment with ozone, UV-visible spectroscopy

Compound | region of increased absorbance [1] | wavelength of absorbance increase in the UVA [1] | region of increased absorbance [2]
poly-L-lysine | 300-400 nm | around 360 nm | 
NC(CC(=O)c1ccccc1NC=O)C(=O)O (centres unmarked) [N-formyl kynurenine] |  |  | 300-350 nm
N[C@@H](Cc1c[nH]c2ccccc12)C(=O)O [L-tryptophan] |  |  | 300 to 400 nm and 300-400 nm
bovine serum albumin: bovine serum albumin stirred under a stream of ozone for 8 hours |  |  | 300-350 nm

— patent publication US12728086B2, “Sunscreens derived from kynurenines and other UV-absorbing oxidized amino acids bound to peptides or polymers” (The Trustees of Princeton University, priority 2021, dated 2026)
